The text below walks through data of PMC3481545 (Biochemistry, 2012).

T1: BMP-7 (UniProt P18075 293-431)
T1 sequence (looked up): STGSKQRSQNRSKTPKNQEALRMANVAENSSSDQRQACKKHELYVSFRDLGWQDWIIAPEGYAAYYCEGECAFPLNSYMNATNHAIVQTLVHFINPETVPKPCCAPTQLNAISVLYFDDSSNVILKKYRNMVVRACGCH

B1: human recombinant BMPR-II ECD, wild type (domain or fragment, UniProt Q13873 26-150, looked up)
chain: ASQNQERLCAFKDPYQQDLGIGESRISHENGTILCSKGSTCYGLWEKSKGDINLVKQGCWSHIGDPQECHYEECVVTTTPPSIQNGTYRFCCCSTDLCNVNFTENFPPPDTTPLSPPHSFNRDET
B2: BMPR-II ECD Y40G (domain or fragment, human, UniProt Q13873 26-150, looked up)
chain: B1 chain with Y15G
B3: BMPR-II ECD Y40R (domain or fragment, human, UniProt Q13873 26-150, looked up)
chain: B1 chain with Y15R
B4: BMPR-II ECD G47N (domain or fragment, human, UniProt Q13873 26-150, looked up)
chain: B1 chain with G22N
B5: BMPR-II ECD Y40P (domain or fragment, human, UniProt Q13873 26-150, looked up)
chain: B1 chain with Y15P
B6: BMPR-II ECD S107P (domain or fragment, human, UniProt Q13873 26-150, looked up)
chain: B1 chain with S82P
B7: GDF-5 (ligand, UniProt P43026 382-501, looked up)
chain: APLATRQGKRPSKNLKARCSRKALHVNFKDMGWDDWIIAPLEYEAFHCEGLCEFPLRSHLEPTNHAVIQTLMNSMDPESTPPTCCVPTRLSPISILFIDSANNVVYKQYEDMVVESCGCR
B8: BMPR-II ECD Y40Q (domain or fragment, human, UniProt Q13873 26-150, looked up)
chain: B1 chain with Y15Q
B9: Chimera BAB: BMPR-II ECD with the ActR-IIB A-loop (domain or fragment)
chain: ASQNQERLCAFKDPYQQDLGIGESRISHENGTILCSKGSTCYGLWEKSKGDINLVKQGCWDDFNCYDRQCVVTTTPPSIQNGTYRFCCCSTDLCNVNFTENFPPPDTTPLSPPHSFNRDET

Changes are numbered by the printed parent chain. Numbers in names are those of the source.

What all share (assay): SPR
In general terms: SPR reads the build-up and loss of mass on a sensor chip optically.

Assay [1] deals with T1, BMP-7.
Assay [2] addresses B2.
Assay [3] has as its target B6.
Assay [4] concerns the target B8.
In assay [5] the target is B1.
For assay [6], the target named is B4.
The target in assay [7] is B3.
Assay [8] has as its target B5.
Assay [9] deals with Activin (UniProt P08476 311-426).
The target in assay [10] is B7.

Turning to B1, binding in [1] was put at a Kd of 135 µM. On the same count and under the same terms, under B2 stands 138 µM; under B3, 117 µM. Same read-out and setting: next, B4: 92 µM; B5: 157 µM. The same measure, in the same setting: under B6 stands 43 µM. Turning to B7, the Kd – broadly, the equilibrium constant for the complex coming apart – amounted to 123 µM in assay [2]; 90 µM in [3]; 175 µM in [4]; 221 µM in [5]; 136 µM in assay [6]; 117 µM in assay [7]. The same molecule returned a Kd in assay [8] of 200 µM. The molecule B8 displayed a dissociation constant (Kd) in assay [1] of 129 µM. Take B9: the Kd in assay [1] stood at 59 µM; in assay [9], 5 µM; in assay [10] it was 197 µM.
